Here are results for two molecules from patent US20220169699A1 (published 2022).

Experiment [1] has as its target murine PD-1-transmembrane PD-1-CD28 fusion protein (PTM) (murine). The experiment is described as follows: cell-based or functional assay.
For experiment [2], the target named is T1, recombinant murine PD-L1 Fc chimera (R&D Systems) (murine, UniProt Q9EP73 19-238).
T1 construct: also called recombinant PD-L1; recombinant PD-L1-Fc; not shown: Fc part of the bought R&D Systems chimera (detected with anti-human IgG)
Kind of experiment: flow cytometry; transduced murine T cells incubated with recombinant PD-L1-Fc. For orientation: A flow cytometer gives signals particle by particle.

T1 sequence (Q9EP73 19-238, change not shown): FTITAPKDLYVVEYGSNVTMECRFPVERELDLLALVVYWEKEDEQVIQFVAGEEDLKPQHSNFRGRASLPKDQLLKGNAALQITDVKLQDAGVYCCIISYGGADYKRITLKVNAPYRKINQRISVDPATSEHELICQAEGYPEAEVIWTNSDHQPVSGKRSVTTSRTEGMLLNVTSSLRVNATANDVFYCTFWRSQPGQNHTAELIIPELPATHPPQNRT

“full length murine PD-L1 on Panc02-OVA-PD-L1 tumor cells (from UniProt Q9EP73 19-290) (ligand)” returned an IFN-γ release in coculture of PTM-transduced OT-1 T cells with tumor cells in experiment [1] of 545 ng/mL.

B1: murine PD-1-transmembrane PD-1-CD28 fusion protein (PTM) (receptor)
chain: LEVPNGPWRSLTFYPAWLTVSEGANATFTCSLSNWSEDLMLNWNRLSPSNQTEKQAAFCNGLSQPVQDARFQIIQLPNRHDFHMNILDTRRNDSGIYLCGAISLHPKAKIEESPGAELVVTERILETSTRYPSPSPKPEGRFQGMVIGIMSALVGIPVLLLLAWALNSRRNRLLQSDYMNMTPRRPGLTRKPYQPYAPARDFAAYRP
notes: Expressed on retrovirally transduced primary murine T cells; The entry starts at PD-1 residue 1, so it includes the signal peptide; also called mPTM; PTM fusion protein
As to B1, the binding result in experiment [2] is reported as “binds”.
